In patent publication US20140162952A1 (ONCOTHERAPY SCIENCE, published 2014):
Substitutions are numbered along the chain they refer to. Names and notes keep the numbering of the source. Like-named read-outs stand apart in the source and are kept apart here.

What was measured:
[1] = molecular target: inherent PHB2/REA (prohibitin 2 / Repressor of Estrogen Activity) (human, UniProt Q99623 2-299, limits assumed); experiment: cell-based or functional assay
NcoR = molecular target: T1, NcoR (human, UniProt O75376 1-2440, limits assumed); experiment: co-IP from the nuclear fraction of KPL-3C cells, 24 h, 10 nM E2 and/or 10 µM Peptide
T1 construct: also called transcription coupling suppression factor NcoR
T1 sequence (O75376 whole entry): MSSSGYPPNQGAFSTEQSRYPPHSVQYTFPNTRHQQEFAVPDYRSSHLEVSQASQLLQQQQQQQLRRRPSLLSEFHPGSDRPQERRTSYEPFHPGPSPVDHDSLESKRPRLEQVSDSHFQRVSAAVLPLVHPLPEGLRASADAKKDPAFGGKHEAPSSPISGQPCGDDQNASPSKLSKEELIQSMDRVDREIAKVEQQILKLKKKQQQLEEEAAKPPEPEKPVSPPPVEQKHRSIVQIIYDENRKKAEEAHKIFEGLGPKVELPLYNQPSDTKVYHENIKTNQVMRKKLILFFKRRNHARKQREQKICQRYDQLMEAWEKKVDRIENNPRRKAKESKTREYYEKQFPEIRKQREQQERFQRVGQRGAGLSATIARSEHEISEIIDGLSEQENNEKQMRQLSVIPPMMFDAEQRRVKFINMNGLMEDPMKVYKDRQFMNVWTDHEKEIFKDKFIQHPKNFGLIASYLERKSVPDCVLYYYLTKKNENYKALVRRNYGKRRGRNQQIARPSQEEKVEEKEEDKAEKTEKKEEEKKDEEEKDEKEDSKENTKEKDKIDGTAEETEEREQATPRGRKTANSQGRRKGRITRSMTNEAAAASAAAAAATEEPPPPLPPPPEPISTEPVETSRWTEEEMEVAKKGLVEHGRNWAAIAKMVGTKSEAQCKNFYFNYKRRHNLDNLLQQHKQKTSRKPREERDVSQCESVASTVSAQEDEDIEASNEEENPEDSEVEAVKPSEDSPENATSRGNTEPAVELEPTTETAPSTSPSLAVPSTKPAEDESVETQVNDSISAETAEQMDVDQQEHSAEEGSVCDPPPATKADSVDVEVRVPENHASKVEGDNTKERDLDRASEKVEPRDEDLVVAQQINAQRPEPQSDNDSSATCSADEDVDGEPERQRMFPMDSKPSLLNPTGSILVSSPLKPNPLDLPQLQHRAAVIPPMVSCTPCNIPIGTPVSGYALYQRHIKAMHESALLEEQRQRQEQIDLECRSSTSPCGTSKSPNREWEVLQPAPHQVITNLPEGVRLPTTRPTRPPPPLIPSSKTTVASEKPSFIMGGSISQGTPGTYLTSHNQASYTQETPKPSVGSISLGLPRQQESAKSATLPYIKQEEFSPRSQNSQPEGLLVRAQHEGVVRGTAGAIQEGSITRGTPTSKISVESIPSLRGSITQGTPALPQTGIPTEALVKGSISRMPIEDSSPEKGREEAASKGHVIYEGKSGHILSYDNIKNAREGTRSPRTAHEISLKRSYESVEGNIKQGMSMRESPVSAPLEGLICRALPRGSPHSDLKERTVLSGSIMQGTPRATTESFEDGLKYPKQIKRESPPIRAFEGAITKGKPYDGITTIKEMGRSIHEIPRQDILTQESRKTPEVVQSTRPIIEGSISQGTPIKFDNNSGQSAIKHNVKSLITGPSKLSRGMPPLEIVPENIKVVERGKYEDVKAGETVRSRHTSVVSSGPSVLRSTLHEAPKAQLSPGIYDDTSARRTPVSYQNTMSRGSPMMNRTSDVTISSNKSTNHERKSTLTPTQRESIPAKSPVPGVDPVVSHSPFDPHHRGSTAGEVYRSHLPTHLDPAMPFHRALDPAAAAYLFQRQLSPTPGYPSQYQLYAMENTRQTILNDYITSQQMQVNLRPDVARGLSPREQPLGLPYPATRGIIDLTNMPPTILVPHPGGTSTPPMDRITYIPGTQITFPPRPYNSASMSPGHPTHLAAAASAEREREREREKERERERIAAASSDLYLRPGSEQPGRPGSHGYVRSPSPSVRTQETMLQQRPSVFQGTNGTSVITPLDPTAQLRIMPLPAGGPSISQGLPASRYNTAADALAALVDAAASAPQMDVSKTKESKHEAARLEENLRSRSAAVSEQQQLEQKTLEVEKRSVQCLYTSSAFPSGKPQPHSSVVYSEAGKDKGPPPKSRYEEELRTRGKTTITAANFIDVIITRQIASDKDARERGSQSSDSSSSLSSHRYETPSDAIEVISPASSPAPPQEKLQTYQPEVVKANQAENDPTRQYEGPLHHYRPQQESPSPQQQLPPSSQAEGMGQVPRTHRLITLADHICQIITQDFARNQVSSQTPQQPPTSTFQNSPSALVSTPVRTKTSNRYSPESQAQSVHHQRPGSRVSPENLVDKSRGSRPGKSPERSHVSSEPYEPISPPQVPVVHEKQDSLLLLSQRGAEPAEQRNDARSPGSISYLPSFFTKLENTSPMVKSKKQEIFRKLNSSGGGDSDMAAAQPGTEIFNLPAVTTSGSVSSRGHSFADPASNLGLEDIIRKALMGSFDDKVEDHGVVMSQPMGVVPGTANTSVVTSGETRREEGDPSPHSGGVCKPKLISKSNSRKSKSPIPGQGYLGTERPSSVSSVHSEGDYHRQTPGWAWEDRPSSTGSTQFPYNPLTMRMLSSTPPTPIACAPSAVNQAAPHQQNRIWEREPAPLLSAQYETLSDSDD

Her2 = Her2 (human, UniProt P04626 23-1255); experiment: anti-ERα co-IP from the cytoplasm fraction of BT-474 cells, 24 h, 10 nM E2 and/or 10 µM Peptide
EGFR = EGFR (human, UniProt P00533 25-1210); experiment: as above
[2] = molecular target: T2, HA-PHB2 (HA-tagged PHB2 construct) (human, UniProt Q99623 1-299, limits assumed); experiment: co-IP from COS-7 cells co-transfected with a Flag-ERAP1 construct and HA-PHB2; IP anti-Flag, IB anti-HA
T2 construct: Expressed by transfection in COS-7 or HEK293T cells; also called PHB2/REA construct; HA-tagged PHB2/REA (WT); not shown: HA tag
T2 sequence (Q99623 whole entry): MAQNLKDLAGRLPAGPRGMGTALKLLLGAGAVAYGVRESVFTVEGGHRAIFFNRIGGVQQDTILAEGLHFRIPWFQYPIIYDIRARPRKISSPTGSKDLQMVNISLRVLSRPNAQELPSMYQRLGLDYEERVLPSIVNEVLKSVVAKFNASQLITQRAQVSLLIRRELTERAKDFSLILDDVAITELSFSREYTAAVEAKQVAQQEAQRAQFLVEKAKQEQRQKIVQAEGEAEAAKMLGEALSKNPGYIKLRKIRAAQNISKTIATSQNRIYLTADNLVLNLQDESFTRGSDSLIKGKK

[3] = molecular target: T2, HA-PHB2 (HA-tagged PHB2 construct); experiment: COS-7 co-transfection with the PHB2/REA construct, IP with anti-HA antibody, immunoblot
[4] = molecular target: T2, HA-PHB2 (HA-tagged PHB2 construct); experiment: COS-7 co-transfection with the PHB2/REA construct, IP with anti-FLAG antibody, immunoblot
[5] = molecular target: T2, HA-PHB2 (HA-tagged PHB2 construct); experiment: co-immunoprecipitation from COS-7 cells, IP anti-FLAG, blot anti-HA (second experiment)
[6] = molecular target: T2, HA-PHB2 (HA-tagged PHB2 construct); experiment: COS-7 co-transfection with the PHB2/REA construct, IP and immunoblot
[7] = molecular target: T2, HA-PHB2 (HA-tagged PHB2 construct); experiment: co-IP from COS-7 cells co-transfected with a Flag-ERAP1 construct and HA-PHB2; IP anti-Flag, IB anti-HA; remark: listed apart in the source

Chain of inherent PHB2/REA (prohibitin 2 / Repressor of Estrogen Activity) (Q99623 2-299 limits assumed): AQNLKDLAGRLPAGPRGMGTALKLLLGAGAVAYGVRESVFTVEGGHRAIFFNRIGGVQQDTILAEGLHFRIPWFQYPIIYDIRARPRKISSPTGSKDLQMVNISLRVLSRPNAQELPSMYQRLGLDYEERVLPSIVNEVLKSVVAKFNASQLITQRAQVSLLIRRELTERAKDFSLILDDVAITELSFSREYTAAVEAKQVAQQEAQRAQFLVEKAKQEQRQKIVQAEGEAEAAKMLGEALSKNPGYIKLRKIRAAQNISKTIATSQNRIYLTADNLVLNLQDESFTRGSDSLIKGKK

B1: ERAP1-peptide (11R-bound dominant negative peptide, ERAP1 165-177) (peptide)
peptide: RRRRRRRRRRRQMLSDLTLQLRQR
IC50 of suppression effect for the cell proliferation in MCF-7 cells for 24 hours [1]: 2180 nM

B2: estrogen receptor α (ERα) (receptor)
chain: MTMTLHTKASGMALLHQIQGNELEPLNRPQLKIPLERPLGEVYLDSSKPAVYNYPEGAAYEFNAAAAANAQVYGQTGLPYGPGSEAAAFGSNGLGGFPPLNSVSPSPLMLLHPPPQLSPFLQPHGQQVPYYLENEPSGYTVREAGPPAFYRPNSDNRRQGGRERLASTNDKGSMAMESAKETRYCAVCNDYASGYHYGVWSCEGCKAFFKRSIQGHNDYMCPATNQCTIDKNRRKSCQACRLRKCYEVGMMKGGIRKDRRGGRMLKHKRQRDDGEGRGEVGSAGDMRAANLWPSPLMIKRSKKNSLALSLTADQMVSALLDAEPPILYSEYDPTRPFSEASMMGLLTNLADRELVHMINWAKRVPGFVDLTLHDQVHLLECAWLEILMIGLVWRSMEHPGKLLFAPNLLLDRNQGKCVEGMVEIFDMLLATSSRFRMMNLQGEEFVCLKSIILLNSGVYTFLSSTLKSLEEKDHIHRVLDKITDTLIHLMAKAGLTLQQQHQRLAQLLLILSHIRHMSNKGMEHLYSMKCKNVVPLYDLLLEMLDAHRLHAPTSRGGASVEETDQSHLATAGSTSSHSLQKYYITGEAEGFPATV
notes: Immunoprecipitated with anti-ERα antibody from cytoplasm or nuclear fractions
binding result (NcoR): binds | binding result (Her2): binds | binding result (EGFR): binds

B3: Flag-ERAP1 1-250 (other, not shown: small tags and cut ends)
chain: MEEILRKLQKEASGSKYKAIKESCTWALETLGGLDTIVKIPPHVLREKCLLPLQLALESKNVKLAQHALAGMQKLLSEERFVSMETDSDEKQLLNQILNAVKVTPSLNEDLQVEVMKVLLCITYTPTFDLNGSAVLKIAEVCIETYISSCHQRSINTAVRATLSQMLSDLTLQLRQRQENTIIENPDVPQDFGNQGSTVESLCDDVVSVLTVLCEKLQAAINDSQQLQLLYLECILSVLSSSSSSMHLHR
notes: deletion construct
binding result [2]: binds

B4: ERAP1 alanine mutant of D169 (D169A) (other)
chain: MEEILRKLQKEASGSKYKAIKESCTWALETLGGLDTIVKIPPHVLREKCLLPLQLALESKNVKLAQHALAGMQKLLSEERFVSMETDSDEKQLLNQILNAVKVTPSLNEDLQVEVMKVLLCITYTPTFDLNGSAVLKIAEVCIETYISSCHQRSINTAVRATLSQMLSALTLQLRQRQENTIIENPDVPQDFGNQGSTVESLCDDVVSVLTVLCEKLQAAINDSQQLQLLYLECILSVLSSSSSSMHLHRRFTDLIWKNLCPALIVILGNPIHDKTITSAHTSSTSTSLESDSASPGVSDHGRGSGCSCTAPALSGPVARTIYYIAAELVRLVGSVDSMKPVLQSLYHRVLLYPPPQHRVEAIKIMKEILGSPQRLCDLAGPSSTESESRKRSISKRKSHLDLLKLIMDGMTEACIKGGIEACYAAVSCVCTLL
notes: also called D169 mutant construct; not shown: Flag tag
coprecipitation band, ratio when that with ERAP1 (1-434 aa) is designated as 100 [3]: 0% | coprecipitation band, ratio when that with ERAP1 (1-434 aa) is designated as 100 [4]: 22% | ratio of the coprecipitated band (ERAP1 1-434 = 100) [5]: 33

B5: ERAP1 alanine mutant of Q165 (Q165A) (other)
chain: B4 chain with Q165A, A169D
notes: also called Q165 mutant construct; not shown: Flag tag
coprecipitation band, ratio when that with ERAP1 (1-434 aa) is designated as 100 [3]: 24% | coprecipitation band, ratio when that with ERAP1 (1-434 aa) is designated as 100 [4]: 60% | ratio of the coprecipitated band (ERAP1 1-434 = 100) [5]: 63

B6: ERAP1 alanine mutant of Q165 and D169 (Q165A, D169A) (other)
chain: B4 chain with Q165A
notes: not shown: Flag tag
coprecipitation band, ratio when that with ERAP1 (1-434 aa) is designated as 100 [6]: 12%

B7: ERAP1 435-2177 (Flag-ERAP1) (other, not shown: small tags and cut ends)
chain: GALDELSQGKGLSEGQVQLLLLRLEELKDGAEWSRDSMEINEADFRWQRRVLSSEHTPWESGNERSLDISISVTTDTGQTTLEGELGQTTPEDHSGNHKNSLKSPAIPEGKETLSKVLETEAVDQPDVVQRSHTVPYPDITNFLSVDCRTRSYGSRYSESNFSVDDQDLSRTEFDSCDQYSMAAEKDSGRSDVSDIGSDNCSLADEEQTPRDCLGHRSLRTAALSLKLLKNQEADQHSARLFIQSLEGLLPRLLSLSNVEEVDTALQNFASTFCSGMMHSPGFDGNSSLSFQMLMNADSLYTAAHCALLLNLKLSHGDYYRKRPTLAPGVMKDFMKQVQTSGVLMVFSQAWIEELYHQVLDRNMLGEAGYWGSPEDNSLPLITMLTDIDGLESSAIGGQLMASAATESPFAQSRRIDDSTVAGVAFARYILVGCWKNLIDTLSTPLTGRMAGSSKGLAFILGAEGIKEQNQKERDAICMSLDGLRKAARLSCALGVAANCASALAQMAAASCVQEEKEEREAQEPSDAITQVKLKVEQKLEQIGKVQGVWLHTAHVLCMEAILSVGLEMGSHNPDCWPHVFRVCEYVGTLEHNHFSDGASQPPLTISQPQKATGSAGLLGDPECEGSPPEHSPEQGRSLSTAPVVQPLSIQDLVREGSRGRASDFRGGSLMSGSSAAKVVLTLSTQADRLFEDATDKLNLMALGGFLYQLKKASQSQLFHSVTDTVDYSLAMPGEVKSTQDRKSALHLFRLGNAMLRIVRSKARPLLHVMRCWSLVAPHLVEAACHKERHVSQKAVSFIHDILTEVLTDWNEPPHFHFNEALFRPFERIMQLELCDEDVQDQVVTSIGELVEVCSTQIQSGWRPLFSALETVHGGNKSEMKEYLVGDYSMGKGQAPVFDVFEAFLNTDNIQVFANAATSYIMCLMKFVKGLGEVDCKEIGDCAPAPGAPSTDLCLPALDYLRRCSQLLAKIYKMPLKPIFLSGRLAGLPRRLQEQSASSEDGIESVLSDFDDDTGLIEVWIILLEQLTAAVSNCPRQHQPPTLDLLFELLRDVTKTPGPGFGIYAVVHLLLPVMSVWLRRSHKDHSYWDMASANFKHAIGLSCELVVEHIQSFLHSDIRYESMINTMLKDLFELLVACVAKPTETISRVGCSCIRYVLVTAGPVFTEEMWRLACCALQDAFSATLKPVKDLLGCFHSGTESFSGEGCQVRVAAPSSSPSAEAEYWRIRAMAQQVFMLDTQCSPKTPNNFDHAQSCQLIIELPPDEKPNGHTKKSVSFREIVVSLLSHQVLLQNLYDILLEEFVKGPSPGEEKTIQVPEAKLAGFLRYISMQNLAVIFDLLLDSYRTAREFDTSPGLKCLLKKVSGIGGAANLYRQSAMSFNIYFHALVCAVLTNQETITAEQVKKVLFEDDERSTDSSQQCSSEDEDIFEETAQVSPPRGKEKRQWRARMPLLSVQPVSNADWVWLVKRLHKLCMELCNNYIQMHLDLENCMEEPPIFKGDPFFILPSFQSESSTPSTGGFSGKETPSEDDRSQSREHMGESLSLKAGGGDLLLPPSPKVEKKDPSRKKEWWENAGNKIYTMAADKTISKLMTEYKKRKQQHNLSAFPKEVKVEKKGEPLGPRGQDSPLLQRPQHLMDQGQMRHSFSAGPELLRQDKRPRSGSTGSSLSVSVRDAEAQIQAWTNMVLTVLNQIQILPDQTFTALQPAVFPCISQLTCHVTDIRVRQAVREWLGRVGRVYDIIV
binding result [7]: no binding

B8: ERAP1 1468-2177 (Flag-ERAP1) (other, not shown: small tags and cut ends)
chain: CPRQHQPPTLDLLFELLRDVTKTPGPGFGIYAVVHLLLPVMSVWLRRSHKDHSYWDMASANFKHAIGLSCELVVEHIQSFLHSDIRYESMINTMLKDLFELLVACVAKPTETISRVGCSCIRYVLVTAGPVFTEEMWRLACCALQDAFSATLKPVKDLLGCFHSGTESFSGEGCQVRVAAPSSSPSAEAEYWRIRAMAQQVFMLDTQCSPKTPNNFDHAQSCQLIIELPPDEKPNGHTKKSVSFREIVVSLLSHQVLLQNLYDILLEEFVKGPSPGEEKTIQVPEAKLAGFLRYISMQNLAVIFDLLLDSYRTAREFDTSPGLKCLLKKVSGIGGAANLYRQSAMSFNIYFHALVCAVLTNQETITAEQVKKVLFEDDERSTDSSQQCSSEDEDIFEETAQVSPPRGKEKRQWRARMPLLSVQPVSNADWVWLVKRLHKLCMELCNNYIQMHLDLENCMEEPPIFKGDPFFILPSFQSESSTPSTGGFSGKETPSEDDRSQSREHMGESLSLKAGGGDLLLPPSPKVEKKDPSRKKEWWENAGNKIYTMAADKTISKLMTEYKKRKQQHNLSAFPKEVKVEKKGEPLGPRGQDSPLLQRPQHLMDQGQMRHSFSAGPELLRQDKRPRSGSTGSSLSVSVRDAEAQIQAWTNMVLTVLNQIQILPDQTFTALQPAVFPCISQLTCHVTDIRVRQAVREWLGRVGRVYDIIV
notes: deletion construct
binding result [7]: no binding

B9: Flag-ERAP1 1-100 (other, not shown: small tags and cut ends)
chain: MEEILRKLQKEASGSKYKAIKESCTWALETLGGLDTIVKIPPHVLREKCLLPLQLALESKNVKLAQHALAGMQKLLSEERFVSMETDSDEKQLLNQILNA
notes: deletion construct
binding result [2]: no binding
